The results in this text go back to paper PMC10542350, “Structural basis of nucleosome deacetylation and DNA linker tightening by Rpd3S histone deacetylase complex” (Cell Research, 2023).

The data set concerns the molecule itself. The data set can be described thus: cryo-EM structure; purified apo Rpd3S complex; 3D map of 3.5 Å.

B1: Rco1 (natural protein, Saccharomyces cerevisiae, UniProt Q04779 1-684, looked up)
chain: MDTSKKDTTRSPSHSNSSSPSSSSLSSSSSKEKKRPKRLSSQNVNYDLKRRKIITSEGIERSFKNEHSNLAVEDNIPEEEPKELLEKDSKGNIIKLNEPSTISEDSKVSVTGLPLNKGPSEKIKRESLWNYRKNLGGQSNNSEMTLVPSKRFTQVPKNFQDLNRNDLKTFLTENMTEESNIRSTIGWNGDIINRTRDREPESDRDNKKLSNIRTKIILSTNATYDSKSKLFGQNSIKSTSNASEKIFRDKNNSTIDFENEDFCSACNQSGSFLCCDTCPKSFHFLCLDPPIDPNNLPKGDWHCNECKFKIFINNSMATLKKIESNFIKQNNNVKIFAKLLFNIDSHNPKQFQLPNYIKETFPAVKTGSRGQYSDENDKIPLTDRQLFNTSYGQSITKLDSYNPDTHIDSNSGKFLICYKCNQTRLGSWSHPENSRLIMTCDYCQTPWHLDCVPRASFKNLGSKWKCPLHSPTKVYKKIHHCQEDNSVNYKVWKKQRLINKKNQLYYEPLQKIGYQNNGNIQIIPTTSHTDYDFNQDFKITQIDENSIKYDFFDKIYKSKMVQKRKLFQFQESLIDKLVSNGSQNGNSEDNMVKDIASLIYFQVSNNDKSSNNKSASKSNNLRKLWDLKELTNVVVPNELDSIQFNDFSSDEIKHLLYLKKIIESKPKEELLKFLNIENPENQSE
notes: Rco1, Saccharomyces cerevisiae; two copies (Rco1A, Rco1B) stand in the Rpd3S complex; also called Rco1A; Rco1B; source: High Five insect cells (baculovirus), co-expressed with the other Rpd3S subunits; purified as part of the complex (streptavidin column, Resource Q, gel filtration); not shown: double StrepII, C-terminal, kept
For the protein B1, the binding result is listed as “binds”.
